One assay concerns the target T1, IL-17A重组蛋白 (UniProt Q16552 24-155, limits assumed).
T1 construct: also called 重组蛋白IL-17A; IL-17A抗原
T1 sequence (looked up): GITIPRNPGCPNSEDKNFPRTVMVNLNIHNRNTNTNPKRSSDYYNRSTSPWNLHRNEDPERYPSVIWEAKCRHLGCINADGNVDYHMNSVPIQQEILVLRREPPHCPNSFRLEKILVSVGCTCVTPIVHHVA
The assay can be described thus: BLI (Fortebio). For orientation: In BLI a coated tip is dipped into the sample, and binding shifts an interference pattern.

In a further assay the target is T2, 牛血清白蛋白(BSA) (bovine, UniProt P02769 25-607).
T2 construct: Control antigen of the specificity ELISA
Nature of the assay: ELISA, BSA coated at 1 μg/ml, anti-His detection, OD450. A general note: ELISA stands for enzyme-linked immunosorbent assay.

By Kd is commonly meant the equilibrium constant for the complex coming apart. The low end stands for a tighter complex, the high end for a looser complex.

T2 sequence (P02769 25-607 limits assumed): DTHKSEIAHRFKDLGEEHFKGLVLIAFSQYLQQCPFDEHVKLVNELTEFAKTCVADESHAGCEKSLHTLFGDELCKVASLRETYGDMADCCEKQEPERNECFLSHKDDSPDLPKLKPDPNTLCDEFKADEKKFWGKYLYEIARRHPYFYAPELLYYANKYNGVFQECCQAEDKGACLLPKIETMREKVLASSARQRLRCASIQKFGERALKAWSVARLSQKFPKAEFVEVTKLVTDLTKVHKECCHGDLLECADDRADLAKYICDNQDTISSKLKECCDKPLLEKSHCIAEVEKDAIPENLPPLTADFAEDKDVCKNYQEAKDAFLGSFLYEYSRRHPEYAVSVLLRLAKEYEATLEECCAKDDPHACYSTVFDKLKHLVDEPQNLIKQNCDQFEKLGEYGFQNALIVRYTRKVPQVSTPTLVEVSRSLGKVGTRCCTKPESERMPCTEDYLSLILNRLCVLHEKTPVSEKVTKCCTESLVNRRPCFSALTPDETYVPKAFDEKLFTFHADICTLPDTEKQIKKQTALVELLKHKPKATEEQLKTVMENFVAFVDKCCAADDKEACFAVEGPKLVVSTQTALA

B1: 全人源抗IL-17A单链抗体No.34 (scFv)
scFv: MQVQLVQSGAEVKPPGASVKVSCKASGYTFTTHKIQWVRQAPGQRLEWMGWINTDKGDTKYSQKFQGRVTITSDTSASTAFMDLSSLRSEDTAVYYCARDGEGYAPFGMDVWGQGTTVTVSSGGGGSGGGGSGGGGSDIRLTQSPPSLSASVGDRVTITCRASQTIGSHLNWYQQKPGKAPKLLIYAASSLQSGVPSRFSGSGSGTDFTLTISSLQPEDFATYYCQQSHSGLTFGGGTKVDIK
notes: also called anti-IL-17A scFv No.34; Anti-IL-17A scFv No.34
B1 yielded a Kd with IL-17A重组蛋白 of 110 nM. Further, in the assay with 牛血清白蛋白(BSA), the binding result is reported as “no binding (tested: 0.1μg/ml)”.

Values taken from patent CN115819579A (UNIV ZHEJIANG, dated 2023).
